Experimental data as given in PMC5512451.

Target: N90-VRC38.01 IgG (human)
Assay: SPR

BG505.DS.T332N.SOSIP.664 gp140 trimer (complex)
fold stronger binding of the IgG than of the Fab: > 7 fold
